Results published in US7708999B2, “Remedies for arthritis” (Kyowa Hakko Kirin Co., Ltd., priority 2001, dated 2010).

Assays:
[1] = system: rabbit synovial cells; assay: Promotion of growth of rabbit synovial cells with FGF-8 ([3H]thymidine incorporation); format: cell-based; settings: FGF-8 1, 10 or 100 ng/mL tested
Procedure: (§1) Rabbit synovial cells were collected by the method of Hamilton et al. (Hamilton J. A. and Slywka J., J. Immunol. 126, 851-855, 1981). The isolated synovial cells were suspended in RPMI 1640 medium comprising 10 vol % FBS (FBS-comprising RPMI 1640 medium is hereinafter referred to as FBS/RPMI 1640), and 10,000 cells was inoculated at each well of a 96-well culture plate. After 24 hours of the culturing, the culture medium of each well was removed, and 200 μL of 0.2 vol % FBS/RPMI 1640 (non-stimulated group) or 0.2 vol % FBS/RPMI 1640 comprising FGF-8 (1, 10 or 100 ng/mL) was added. When the activity of the anti-FGF-8 neutralizing antibody was examined, 200 μL of 0.2 vol % FBS/RPMI 1640 comprising FGF-8 (100 ng/mL) (0 group) or 0.2 vol % FBS/RPMI 1640 comprising FGF-8 (100 ng/mL) and anti-FGF-8 neutralizing antibody KM1334 (0.1, 0.3, 1, 3 or 10 μg/ml) was added to each well. After 48 hours of the culturing, 9.25 kBq per well of [^3H]thymidine was added. The culturing was further performed for 24 hours, and the radioactivity of [^3H]thymidine incorporated in the cells was measured using a liquid scintillation counter (1205 Beta Plate, manufactured by Perkin Elmer Life Science Japan). Six experiments were performed for each condition, and the mean values and the standard error were calculated.

[2] = system: rabbit articular chondrocytes; assay: Promotion of production of matrix metalloproteinase-3 from rabbit chondrocytes with FGF-8; format: cell-based; settings: 48 hours
Procedure: Rabbit articular chondrocytes were isolated and cultured by the method described in Example 1. After the chondrocytes became confluent, the culture solution was replaced with 0.5 vol % FBS/DMEM, followed by the culturing for 24 hours. The culture solution was removed, and 1 mL of 0.5 vol % FBS/DMEM (non-stimulated group), 0.5 vol % FBS/DMEM comprising FGF-8 (100 ng/mL)(0 group) or 0.5 vol % FBS/DMEM comprising FGF-8 (100 ng/mL) and anti-FGF-8 neutralizing antibody KM1334 (1, 3 or 10 μg/mL) was added, followed by the culturing for 48 hours. After 48 hours, the culture medium was recovered, the matrix metalloproteinase-3 concentration in the culture medium was measured using rabbit matrix metalloproteinase-3 ELISA system (manufactured by Amersham Biosciences). Three experiments were performed for each condition, and the mean values and the standard error were calculated.

[3] = system: human synovial cells derived from the rheumatoid arthritis patient; assay: Promotion of growth of human synovial cells with FGF-8 ([3H]thymidine incorporation); format: cell-based; settings: FGF-8 10, 100 or 500 ng/mL tested
Procedure: as §1, with “When the activity of the anti-FGF-8 neutralizing antibody was examined, 200 μL of 0.2 vol % FBS/RPMI 1640 comprising FGF-8 (100 ng/mL) (0 group) or 0.2 vol % FBS/RPMI 1640 comprising FGF-8 (100 ng/mL) and anti-FGF-8 neutralizing antibody KM1334 (0.1, 0.3, 1, 3 or 10 μg/ml) was added to each well. After 48 hours of the culturing, 9.25 kBq per well of [^3H]thymidine was added.” left out
The same experiment as in Example 3 was performed using human synovial cells derived from the rheumatoid arthritis patient (procured from Toyobo). […] Six experiments were performed for each condition, and the mean values and the standard error were calculated.

[4] = system: rabbit articular chondrocytes; assay: Degradation of extracellular matrix of rabbit chondrocytes with FGF-8; format: cell-based; settings: 48 hours, FGF-8 1, 10 or 100 ng/mL tested
Procedure: Rabbit articular chondrocytes were isolated from both knees and shoulders of 3-week-old New Zealand white female rabbits and cultured according to the method of Tamura et al. (Tamura T. et al., Eur. J. Pharmacol., 419, 269-274, 2001). That is, the joints of both knees and the joints of both shoulders were isolated to collect the epiphyseal cartilages. […] The culture solution was removed, and the amount of glycosaminoglycan in extracellular matrix remaining on the plate was measured by the dimethymethylene blue (DMMB) method (Chandrasekhar S. et al., Anal. Biochem. 161 103-108, 1987). […] To 75 μL of this digested solution were added 25 μL of a guanidine hydrochloride buffer (2.88 mol/L guanidine hydrochloride, 50 mmol/L sodium acetate, pH 6.8) and 200 μL of a DMMB solution, and the absorbance was measured at 530/590 nm. The concentration of glycosaminoglycan of each sample was calculated from the absorbance of chondroitin sulfate (derived from whale cartilages, manufactured by Seikagaku Kogyo) used as a standard. Three experiments were performed for each condition and the mean values and the standard error were calculated.

[5] = system: knee joint of Sprague-Dawley rats; assay: Induction of arthritis by intraarticular injection of FGF-8; format: in vivo, rat; settings: 50 μL of 1 mg/mL FGF-8 into knee joint of rats, after 3 days
Procedure: Arthritis-like phenotypes were induced in Sprague-Dawley rats (male, 7 weeks old, Japan Charles River) using FGF-8 in the following manner. Fifty μL of FGF-8 solution prepared with saline(manufactured by Otsuka Seiyaku Kojo) to a final concentration of 1 mg/mL was injected into the each knee joint of rats. Further, a group that injected 50 μL of saline into the knee joint was also prepared. One group consisted of 3 rats. After 3 days from the injection of FGF-8 or saline, the inside of the knee articular capsule was washed with 30 μL of saline comprising 0.38 w/v % sodium citrate to collect the lavage fluid, according to the method of Yamada et al (Yamada A. et al., Inflamm. Res., 49, 144-146, 2000). This procedure was repeated ten times to recover 300 μL of the joint lavage fluid. The amount of glycosaminoglycan in the joint lavage fluid was measured by the DMMB method described in Example 1. The patella of the knee joint was isolated, and the cartilaginous portion was digested with papain by the method described in Example 1 to measure the […].

B1: FGF-8: fibroblast growth factor FGF-8, androgen-induced growth factor; manufactured by Peprotech (protein, UniProt P55075 23-233, looked up)
Fibroblast growth factor 8: QEGPGRGPALGRELASLFRAGREPQGVSQQHVREQSLVTDQLSRRLIRTYQLYSRTSGKHVQVLANKRINAMAEDGDPFAKLIVETDTFGSRVRVRGAETGLYICMNKKGKLIAKSNGKGKDCVFTEIVLENNYTALQNAKYEGWYMAFTRKGRPRKGSKTRQHQREVHFMKRLPRGHHTTEQSLRFEFLNYPPFTRSLRGSQRTWAPEPR
Question: What does the source list for B1?
Answer: concentration at which FGF-8 significantly promoted the incorporation of [3H]thymidine into the rabbit synovial cells [1]: 100 ng/mL; concentration at which FGF-8 significantly increased the production of matrix metalloproteinase-3 from the chondrocytes [2]: 100 ng/mL; concentration at which FGF-8 significantly promoted the incorporation of [3H]thymidine into the human synovial cells [3]: 500 ng/mL; concentration at which FGF-8 significantly decreased the residual amount of glycosaminoglycan in extracellular matrix [4]: 100 ng/mL; concentration of glycosaminoglycan in the joint lavage fluid relative to the saline injected group [5]: 1.9 times; weight of the patella after papain digestion relative to the saline injected group [5]: 40%
